# Experimental data published in the nanobody polyreactivity screen of Harvey et al. (2022).
# Test: yeast display, Sf9 membrane polyspecificity reagent, FACS + sequencing; frameworks hold sequencing errors
# Procedure, shortened: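 Galactose-induced (36–48 hours) yeast carrying a synthetic nanobody display library were exposed to 10% biotinylated, detergent-solubilized Sf9 membrane reagent at 4 °C for 1 hour. FACS followed streptavidin microbead enrichment, using low and high (top ~1%) gates for expression (anti-HA) and reagent binding (streptavidin). Colony PCR, MiSeq 2 × 250 sequencing and CDR-length filtering followed. Labels for polyreactivity reflect the gate of origin.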
row,Sequence,polyreactivity (PSR sort gate)
1,QVQLVESGGGLVQAGGSLRLSCAASGSIFPLYAMGWYRQAPGKERELVAAISWSGGSTYYADSVKGRFTISRDNAKNTVYLQMNSLKPEDTAVYYCATLYISTSGYIYEGDYWGQGTQVTVSS,high polyreactivity
2,QVQLVESGGGLVQAGGSLRLSCAASGSIFPPNAMGWYRQAPGKERELVAAITWSGGSTYYADSVKGRFTISRDNAKNTVYLQRNSLKPEDTAVYYCAKEGARSYNVRAYYYRNYYYWGQGTQVTVSS,high polyreactivity
3,QVQLVESGGGLVQAGGSLRLSCAASGSIFPPYAMGWYRHAPGKERELVATITIRGGSTYYADSVKGRFTISRDNAKNTVYLQMNSLKPEDTAVYYCAADYSKYYRRYYYWGQGTQVTVSS,high polyreactivity
4,QVQLVESGGGLVQAGGSLRLSCAASGSIFPPYVMGWYRQAPGKERELVASITTSGGSTYYADSVKGRFTISRDNAKNPVYLQMNSLKPEDTAVYYCAARWYYGGKSAGPGGGYWGQGTQVTVSS,low polyreactivity
5,QVQLVESGGGLVQAGGSLRLSCAASGSIFPQNGMGWYRQAPGKERELVAAISSNGDNTYADSVKGRFTISRDNAKNTVYLQMNSLKPEDTAVYYCAAERRRTAGGVYHPWEDYWGQGTQVTVSS,low polyreactivity
6,QVQLVESGGGLVQAGGSLRLSCAASGSIFPQYAMGWYRQAPGKERELVAVISWSGGRTYYADSVKGRFTISRDNAKNTVYLQMNSLKPEDTAVYYCAAKYWYQRYAQSSYTRYYWGQGTQVTVSS,high polyreactivity
7,QVQLVESGGGLVQAGGSLRLSCAASGSIFPRNAMGWYRQAPGKERELVAAIRKSGGSTYYADSVKGRFTISRDNAKNTVYLQMNSLKPEDTAVYYCAKPYSVCCWQSPIYNYWGQGTQVTVSS,low polyreactivity
8,QVQLVESGGGLVQAGGSLRLSCAASGSIFPRNTMGWYRQAPGKEREFVAAITTTGSRTYYADSVKGRFTISRDNAKNTVYLQMNSLKPEDTAVYYCAATRRWYPTKLYGYWGQGTQVTVSS,high polyreactivity
9,QVQLVESGGGLVQAGGSLRLSCAASGSIFPSNAMGWYRQAPGKERELVAAINRDGITNYADSVKGRFTISRDNAKNTVYLQMNSLKPEDTAVYYCAAEFAWQWWEYGYWGQGTQVTVSS,low polyreactivity
10,QVQLVESGGGLVQAGGSLRLSCAASGSIFPSYAMGWYRQAPGKERELVAAISRSAGSTYYADSVKGRFTISRDNAKNTVYLQMNSLKPEVTAVYYCAADVYSSRYRYDYWGQGTQVTVSS,low polyreactivity
11,QVQLVESGGGLVQAGGSLRLSCAASGSIFPSYAMGWYRQAPGKERELVATISGSGTRTYYADSVKGRFTISRDNAKNTFYLQMNSLKPEDTAVYYCARLPPGDMDYWGQGTQVTVSS,low polyreactivity
12,QVQLVESGGGLVQAGGSLRLSCAASGSIFPSYDMGWYRQAPGKERELVAAIRSGGNTTYADSVKGRFTISRDNAKNTVYLQMNSLKPEDTAVYYCAKGYYYYSTVQFYYWGQGTQVTVSS,low polyreactivity
13,QVQLVESGGGLVQAGGSLRLSCAASGSIFPSYVMGWYRQAPGKERELVAGITSSGGSTYYADSVKGRFTISRDNAKNTVYLQMNSLKPEDTAVYYCAARWKPASYGYGYWGQGTQVTVSS,low polyreactivity
14,QVQLVESGGGLVQAGGSLRLSCAASGSIFPTNAMGWYRQAPGKERELVAAISRGDSTYYADSVKGRFTISRDNAKNTVYLQMNSLKPEDTAVYYCAARRSRTLWSPFYYWGQGTQVTVSS,low polyreactivity
15,QVQLVESGGGLVQAGGSLRLSCAASGSIFPVNAMGWYRQAPGKEREWVAAISVSGGRTYYADSVKGRFTISRDNAKNTVYLQMNSLKPEDTAVYYCNKLLARGYASGYDYWGQGTQVTVSS,high polyreactivity
16,QVQLVESGGGLVQAGGSLRLSCAASGSIFPVNTMGWYRQAPGKERELVAAITQRGGRTYYADSVKGRFTISRDNAKNTVYFQMNSLKPEDTAVYYCNRDLGAGGYDYWGQGTQVTVSS,low polyreactivity
17,QVQLVESGGGLVQAGGSLRLSCAASGSIFPVYAMGWYRQAPGKERELVAAINSSGGSTYYADSVKWRFTISRDNAKNTVYLQMNSLKPEDTAVYYCAAEISTASYYAKTYDYWGQGTQVSVSS,low polyreactivity
18,QVQLVESGGGLVQAGGSLRLSCAASGSIFPWNTMGWYRQAPGKERELVARISTSGASTYYADSVKGRFTISRDNAKNTVYLQMNSLKPEDTAVYYCAKVRHYGGRSWWYYYWGQGTQVTVSS,high polyreactivity
19,QVQLVESGGGLVQAGGSLRLSCAASGSIFPWYTMGWYRQAPGKERELVAAITSSGGGTYYADSVKGRFTISRDNAKNTVYLQINSLKPEDTAVYYCAAGLDWGPEYEYWGQGTQVTVSS,low polyreactivity
20,QVQLVESGGGLVQAGGSLRLSCAASGSIFPYNDMGWYRQAPGKERELVAAISDSAGSTYYADSVKGRFTISRDNAKNTVYLQMNSLKPEDTAVYYCADYDYWGQGTQVTVSS,low polyreactivity
21,QVQLVESGGGLVQAGGSLRLSCAASGSIFPYNDMGWYRQAPGKERELVARITNGGSTNYADSVKGRFTISRDNAKNTVYLQMNSLKPEDTAVYYCNKDGTQEFAPDGHEYWGQGTQVTVSS,low polyreactivity

row,Sequence,polyreactivity (PSR sort gate)
1,QVQLVESGGGLVQAGGSLRLSCAASGSIFPYNVMGWYRQAPGKERELVAAITTGGRTNYADSVKGRFTISRDNAKNTVYLQMNSLKPEDTAVYYCAADRVVFGYWYYYWGQGTQVTVSS,high polyreactivity
2,QVQLVESGGGLVQAGGSLRLSCAASGSIFPYNVMGWYRQAPGKERELVAAITTGGRTNYADSVKGRFTISRDNAKNTVYLQMNSLKPEDTAVYYCAARYGYYDSRRWYYYWGQGTQVTVSS,high polyreactivity
3,QVQLVESGGGLVQAGGSLRLSCAASGSIFPYNVMGWYRQAPGKERELVASIDGRGASTYYADSVKGRFTISRDNAKNTVYLQKNSLKPEDTAVYYCAAGYEPYAAWYYYWGQGTQVTVAS,low polyreactivity
4,QVQLVESGGGLVQAGGSLRLSCAASGSIFPYYAMGWYRQAPGKERELVAAITSAGSTNYADSVKGRFTISRDNAKNTVYLQMNSLKPEDTAVYYCAKEYYASGRSYRYPQYDYWGQGTQVTVSS,low polyreactivity
5,QVQLVESGGGLVQAGGSLRLSCAASGSIFPYYAMGWYRQAPGKERELVAAITWSGGNTYYADSVKGRFTISRDNAKNTVYLQMNSLKPEDTAVYYFNALYRKYTGYDGYDYWGQGTQVTVSS,high polyreactivity
6,QVQLVESGGGLVQAGGSLRLSCAASGSIFPYYAMGWYRQAPGKERELVADITSSVGSTYYADSVKGRFTISRDNAKNTVYLQMNSLKPEDTAVYYCAALYWFYVYPFTEYDYWGQGTQVTVSS,low polyreactivity
7,QVQLVESGGGLVQAGGSLRLSCAASGSIFPYYAMGWYRQAPGKERELVATITYRGGSTNYADSVKGRFTISRDNAKNTVYLQMNSLKPEDTAVYYCAAYGYVLASPDPYSFVKLGYWGQGTQVTVSS,low polyreactivity
8,QVQLVESGGGLVQAGGSLRLSCAASGSIFPYYTMGWYRQAPGKERELVAAISGSGTSTYYADSVKGRFTISRDNAKNTVYLQMNSLKPEDTAVYYCAKRFRYGYVNYYYWGQGTQVTVSS,low polyreactivity
9,QVQLVESGGGLVQAGGSLRLSCAASGSIFQANAMGWYRQAPGKEWEFVAAINWSTGTTYYADSVKGRFTISRDNAKNTVYLQMNSLKPEDTAVYYCNASDQAKYDYWGQGTQVTVSS,low polyreactivity
10,QVQLVESGGGLVQAGGSLRLSCAASGSIFQEYAMGWYRQAPGKERELVAAIDDSDGSTYADSVKGRFTISRDNAKTTVYLQMNSLKPDDTAVYYCNADIHATYDYWGQGTQVTVSS,low polyreactivity
11,QVQLVESGGGLVQAGGSLRLSCAASGSIFQGNAMGWYRQAPGKERELVAAISWSGDSTYYADSVKGRFTISRDNAKNTVYLQMNSLKPEDTAVYYCNAEWTRDFYEYDYWGQGTQVTVSS,low polyreactivity
12,QVQLVESGGGLVQAGGSLRLSCAASGSIFQGNAMGWYRQAPGKERELVAGITRSGGSTYYADSVKGRFTISRDNAKNTVYLQMNSLKPEDTAVYYCAADYSSDGDYWGQGTQVTVSS,low polyreactivity
13,QVQLVESGGGLVQAGGSLRLSCAASGSIFQGYAMGWYRQAPGKERELVASISRGGSTNYADSVKGRFTISRDNAKNTVYLQMNSLKPEDTAVYYCAARAYWYGRYGYWGQGTQVTVSS,high polyreactivity
14,QVQLVESGGGLVQAGGSLRLSCAASGSIFQGYSMGWYRQAPGKERELVAAITASGGSTYYADSVKGRFTISRDNAKNTVSLKMNSLKPEDTAVYYCATDSYWRHDLYRYEYWGQGSQVTVSS,high polyreactivity
15,QVQLVESGGGLVQAGGSLRLSCAASGSIFQHYAMGWYRQAPGKERELVARINWSGGRTYYADSVKGRFTISRDNAKNTVYLQMNSLKPEDTAVYYCNARYYYWGKAAFNYWGQGTQVTVSS,high polyreactivity
16,QVQLVESGGGLVQAGGSLRLSCAASGSIFQHYAMGWYRQAPGKERELVARISYSGGNTYYADSVKGRFTISRDNAKNTVYLQMNSLKPEDTAVYYCAATRSHYPYRSGGDYWGQGTQVTVSS,low polyreactivity
17,QVQLVESGGGLVQAGGSLRLSCAASGSIFQPYAMGWYRQAPGKERELVAAITNGGSTYYADSVKGRFTISRDNAKNTVYLQMNSLKPEDTAVYYCATDVLLYFEPVNLDYWGQGTQVTVSS,low polyreactivity
18,QVQLVESGGGLVQAGGSLRLSCAASGSIFQVYAMGWYRQAPGKERELVATITSGGSTYYADSVKGRFTISRDNAKNTVYLQMNSLKPEDTAVYYCAAGVVYWWTGYPTISTYDYWGQGTQVTVSS,low polyreactivity
19,QVQLVESGGGLVQAGGSLRLSCAASGSIFQYNAMGWYRQAPGKERELVADITSAGRTYYADSVKGRFTISRDNAKNTVYLQMNSLKPEDTAVYYCNKDYHYHFSWYGYWGQGTQVTVSS,low polyreactivity
20,QVQLVESGGGLVQAGGSLRLSCAASGSIFQYNTMGWYRQAPGKESELVASISWRSGSTYYADSVKGRFTISRDNAKNTVYLQMNSLKPEDTAVYYCAAQVDPWWYDAGYDYWGQGTQVTVSS,low polyreactivity
